Results from the DeepSol protein solubility set.

Experiment: soluble on expression in E. coli; label from the status in PepcDB or PDB records

Which “soluble on expression in E. coli” value does the source give for “MSLNARSYLEQQLTGQNANAANALALAITQSQADKAMAETLINATFDQGYFHHIRWQGADGKVRVDRVNEAVFPAAPGWFRALLPLSPQPGSALVTAGWMQAGEIRVEAALGYAYESLWRGALQTMLWLLGTGLLAGLLGSIDIFKLRRDLQRVVNQARAISEHRFQRMTEPKVPELARVVGAMNQMVERLQSFLGEQSEEVEQLRRERHTDPVTGLPNREALEQAVSSTLAEEDDVRGCLLLLRLAGLAELNQRLGGERADALLVRLAADLEDLAARRKGWMAARLRGADFAVFCPELDMDGGRQLAETLCEQLALYRQMGLSDRDGIGHIGVCGIVQGDGLASLLARASQALAEAEAAGDNQWRVDDGAGPDVGSEWDWRELIEAACREHSLRLRWFPVRDAARGILWQEGMLYRPPMDGLPAINAMRLVSHSLRLGLSHLADLEALRLALADAPGAALAVNLSPASLAARGFQWQVTEMLAGSRATVSFEFDEAGLDEHWAAFLAFGEAVKGAGHRLAVEIRGHRLELVARLNQAGIDYLVLDGALTRGIHRDEGRKVLVKGVQRMTSLMGARLIAKGVASEEDARLLLELRVDGLTGPAEGHHHHHH” here?
The value was “not soluble”.

With “MSLSEFWKEKHGEREQDHEKTIMDGYSVANRFDGTGGGWGYSANSVEAIQFKVSKEIRLVGVGLYGGRGEYISKLKLYRQIGTEADELYVEQITETDETVYDCGAHETATMLFSQPIVIQPNHWHVVSAKISGPSSDCGANGKRHVECDGVTFQFRKSAVSNNGTDVDVGQIPELYYQIVGGSESRDESDSNKQLSISREGHHHHHH” as the sequence, how does the “soluble on expression in E. coli” value read?
Its value is “soluble”.

For “TESPADSFLKVELELNLKLSNLVFQDPVQYVYNPLVYAWAPHENYVQTYCKSKKEVLFLGMNPGPFGMAQTGVPFGEVNHVRDWLQIEGPVSKPEVEHPKRRIRGFECPQSEVSGARFWSLFKSLCGQPETFFKHCFVHNHCPLIFMNHSGKNLTPTDLPKAQRDTLLEICDEALCQAVRVLGVKLVIGVGRFSEQRARKALMAEGIDVTVKGIMHPSPRNPQANKGWEGIVRGQLLELGVLSLLTG”, which “soluble on expression in E. coli” value is on record?
The value was “soluble”.

Which “soluble on expression in E. coli” value does the source give for “MKQFDKHADAYNVVRGKIAYPDSLYRNLAERAPAREAALDIGCGNGVSTVRLQPWFRYVEGSDLGEALIAKARENYPEIRFSVSPAETFAPQRRFDLVTSATSFYWMDRKQVLTRMADWLTPGGLFCAYKYDFPIAYGPLRDFIEHELVNKWAKHRDPRLTRYDDTLEIMGSCPHLRDCRREVFANIIFLSPEEVALFFLSTSYVTRYIEQEGGEDYADRFIAAVREIESAPQVAVNFDIHAFTALNR” here?
Its value is “not soluble”.

With “MSGAGKKIADVAFKASRTIDWDGMAKVLVTDEARREFSNLRRAFDEVNTQLQTKFSQEPEPIDWDYYRKGIGAGIVDKYKEAYDSIEIPKYVDKVTPEYKPKFDALLVELKEAEQKSLKESERLEKEIADVQEISKKLSTMTADEYFEKHPELKKKFDDEIRNDNWGY” as the sequence, how does the “soluble on expression in E. coli” value read?
The value was “soluble”.

With “MINVSDLTQKLPEGSNAGVIAKNINQNQIIADYNGSTFMLPASTQKVFTAVAAKLALGDQFQFETALLSNGKIQNGNLDGNLIVSFTGDPDLTRGQLYSLLAELKKQGIKKINGDLVLDTSVFSSHDRGLGWIWNDLTMCFNSPPAAANIDNNCFYAELDANKNPGEIVKINVPAQFPIQVFGQVYVADSNEAPYCQLDVVVHDNNRYQVKGCLARQYKPFGLSFAVQNTDAYAAAIIQRQLRKLGIEFNGKVLLPQKPQQGQLLAKHLSKPLPDLLKKMMKKSDNQIADSLFRAVAFNYYKRPASFQLGTLAVKSILQKQGIRFGNSILADGSGLSRHNLVAPKTMLSVLEYIAKNEDKLHLMETFPIAGVDGTISGRGGLISPPLVKNVIAKTGSLKGVYNLAGFMTNARGEKVAFVQFINGYSTGDLESKTKRAPLVQFERNLYNELYKY” as the sequence, how does the “soluble on expression in E. coli” value read?
Its value is “soluble”.

With “SSEASRDDYKIQSFDAQTQQLLKTALKDPGAVDLERVANVIVDHSLQDCVFSKEAGRMCYAIIQAESKQAGQSVFRRGLLNRLQKEYDAREQLRACSLQGWVCYVTFICNIFDYLRVNNMPMMALVNPVYDCLFQLAQPESLSREEEVDCLVLQLHRVGEQLEKMNGQRMDELFILIRDGFLLPTDLSSLARLLLLEMIEFRAAGWKTTPAAHKYYYSEVSD” as the sequence, how does the “soluble on expression in E. coli” value read?
Its value is “soluble”.

With “MRFAPFTRQRHHNREQIKQHPEWFPAPLKASDRRWQALAENNHFLSSDHLHNITEVAIHRLEQQLGKPYVWGGTRPDQGFDCSGLVFYAYNKILEAKLPRTANEMYHYRRATIVANNDLRRGDLLFFHIHSREIADHMGGYLGDGQFIESLRTGETIRVSRLAEPFWQDHFLGARRILTEEMIL” as the sequence, how does the “soluble on expression in E. coli” value read?
The value was “not soluble”.

With “HLPKPTLWAEPGSVITQGSPVTLRCQGGQETQEYRLYREKKTAPWITRIPQELVKKGQFPIPSITWEHAGRYRCYYGSDTAGRSESSDPLELVVTGAYIKPTLSAQPSPVVNSGGNVTLQCDSQVAFDGFILCKEGEDEHPQCLNSQPHARGSSRAIFSVGPVSPSRRWWYRCYAYDSNSPYEWSLPSDLLELLVLG” as the sequence, how does the “soluble on expression in E. coli” value read?
The value was “soluble”.

For “MSLFMPPVFPAHWHVSQPVLIADTFSSLVWKVSLPDGTPAIVKGLKPIEDIADELRGADYLVWRNGRGAVRLLGRENNLMLLEYAGERMLSHIVAEHGDYQATEIAAELMAKLYAASEEPLPSALLPIRDRFAALFQRARDDQNAGCQTDYVHAAIIADQMMSNASELRGLHGDLHHENIMFSSRGWLVIDPVGLVGEVGFGAANMFYDPADRDDLCLDPRRIAQMADAFSRALDVDPRRLLDQAYAYGCLSAAWNADGEEEQRDLAIAAAIKQVRQTSYEGHHHHHH”, which “soluble on expression in E. coli” value is on record?
The value was “soluble”.

Which “soluble on expression in E. coli” value does the source give for “MEGIIVRRVIPSDNSCLFNAIGYVMDKDKNKAPELRQVIAAAVASNKEKYNEAFLGKLNEEYCAWILNPDKWGGAIELSILADYYGREIAAYDIQTSRCDLYGQTRNYDERVMLIYDGLHYDALALSPFEGAEEDFDMTIYPVGKDRSIGSIEGLALNLVKDQQRKRSYTDTANFTLRCGVCQIGVIGQKEAVEHAQATGHVNFQEYK” here?
The value was “soluble”.

For “MHHHHHHSSGVDLGTENLYFQSNAMELKDYYAILGVQPTDDLKTIKTAYRRLARKYHPDVSKENDAEAKFKDLAEAWEVLKDEQRRAEYDQLWQHRNDPGFGRQRQTHEQSYSQQDFDDIFSSMFGQQAHQRRRQHAARGHDLEIEVAVFLEETLAEQTRTISYNLPVYNVFGMIESETPKTLNVKIPAGVVDGQRIRLKGQGTPGENGGPNGDLWLVIHIAPHPLFDIVGHNLEIVLPLAPWEAALGAKVTVPTLKESILLTVPPGSQAGQRLRIKGKGLVSKTHTGDLFAVIKIVMPTKPDEKARELWQQLAAAEASFDPRKTWGKA”, which “soluble on expression in E. coli” value is on record?
Its value is “soluble”.

For “MGSDKIHHHHHHMYLKISHTTEYHYDEPVQYALQRLRLTPVNLPGQTVRNWKTLVDGAAIEVSYDDQFGNRTHLVSLDADRTTLCIEANGEVETEDRAGVFGAHQSYVPLWLYARETPLTKPGKRIRELAKAAGGATELERMHALMAIIHETVRYEQGETQVGTSAEEALERGKGVCQDHAHILISAARTLGLPARYVSGYLMMEDHPQQTASHAWADVHIAGLGWVGFDPANKVCPDDRYVRIASGLCYRDAAPVSGLVHGTGTETLKVAVTVEQQGQSQAQN”, which “soluble on expression in E. coli” value is on record?
The value was “not soluble”.

For “MIQRNSTLAVLRESFVAGSDENLSPIMHHLWKMEGGAIYFCRSGWAHVTIDLKEYEIVKNTQVVLLPGSIIRINGSSSDFTASFFGFPKDMFREACLRLEPTFFRFMKEKPCYVLPDKDTGAINGLIQATTAIYNDRENRFRNQIAKNHLQSFMLDIYDKCYRYFDKQEIEGGSRQDEIFKKFVALVHENCISQREVNFYANELCISTKYLTGICRSVTGDSAKKIIDDFAILEIKVLLQSTELTMQDIADRLGFPDQSYLGRYFKRHEGMSPREYQNRYVI”, which “soluble on expression in E. coli” value is on record?
Its value is “not soluble”.

For “MYYGFDIGGTKIALGVFDSTRRLQWEKRVPTPHTSYSAFLDAVCELVEEADQRFGVKGSVGIGIPGMPETEDGTLYAANVPAASGKPLRADLSARLDRDVRLDNDANCFALSEAWDDEFTQYPLVMGLILGTGVGGGLVLNGKPITGQSYITGEFGHMRLPVDALTLMGFDFPLRRCGCGQMGCIENYLSGRGFAWLYQHYYDQSLQAPEIIALWEQGDEQAHAHVERYLDLLAVCLGNILTIVDPDLLVIGGGLSNFTAITTQLAERLPRHLLPVARAPRIERARHGDAGGMRGAAFLHLTD”, which “soluble on expression in E. coli” value is on record?
The value was “soluble”.

With “AEWSGEYISPYAEHGKKSEQVKKITVSIPLKVLKILTDERTRRKVNNLRHATNSELLCEAFLHAFTGQPLPDDADLRKERSDEIPEAAKEIMREMGINPETWEY” as the sequence, how does the “soluble on expression in E. coli” value read?
The value was “soluble”.

With “FSDIASLQRFIKLNQSDWLFEMLATERFTSYFQPIVSIKDTSQIFGYESLLRGLDEEGNLMLPTPIMELATEAGLIPQLDQIARLSAITEFSRYKVSGHIFINFAPTSLYDPAFCLSSSVEAIDTAEISHDRVVFEVVESDNPQDLTHLKAVLKYYRDAGFLVALDDLGSGYSSLNLLHQLRPDFIKLDMELIRDVHQDLYKASITEKLLEITQKLNIQTVAEGIECIEELNWLRERGANLAQGYLIAKP” as the sequence, how does the “soluble on expression in E. coli” value read?
The value was “not soluble”.

With “MKLPVPSPMRLAVTHEGRSIIYIPSPEYAVASGRLEPAWLEVFYNPAMEFNRDVSVVAASALRRTGLLTRSGVAFDAHAGVGVRGVRYAVEAGYVKVIMNDINPKASMLAALNARANGLEPGSYMIFNKESNSLMFHLSRERPTPVSLIDIDPYGSPAPFVDAALALSGKGTVVAMTATDLAVLEGGKARAAVRRYMLRSVSKTPVSKETGLRVLLGYVARVAAAHDKAVKPLLAYYADHYYRVYVAVERGARRSDSMLEENLGRLVYCPETGVALALSYAEDPASACGGSYVVAADPAWIGSLGDQAFLEAMLNIAVEAVWLGTRPRVEKLLNTLHGEAPLSPRSIYVSLTSVASKARVNTPKKSKVVELLRSMGYRAVATHFSGEGVRTDAPWGEVLEAVVKLGSSG” as the sequence, how does the “soluble on expression in E. coli” value read?
The value was “soluble”.

With “MGSDKIHHHHHHMEPGSQVTDRLRFGCTGCGKCCTGHHVPLTLAEARRWAEDAGQVVVLIEAFVVDGPGMPLEQRDHVLRRSHPVHCGEGEARVSVTFAAFNPGRCRNLDANDLCTIYEQRPLVCRIYPVEINPHIPLRPDSKDCPPEAWQQGPELIHGTQLVDVELQALVQASRQADRDDIAAKVAVCQALGMTTSALKGNGFTAYLPDMGAFAAALAQVQGNEGAQWTLHVQDEALTASLQALGLRTTHETPVYYAFIGF” as the sequence, how does the “soluble on expression in E. coli” value read?
The value was “not soluble”.

With “MGSDKIHHHHHHAQDRAQQASELLDRLIAGQGDSVYVHLDDNIRKMLSVEMLNGLFKQLEQQAGKYQSHGEWNTEPINGMTVYYCDVKFERLPLRFLTAFNPDGKVNTIRFVPVPPEKTTPPTTSVQDKIKETDIQVCTGNFKLPGTLTLPKNGKDLPVVILVHGSGASDRDETVGANKPFRDLAYGLAERGIAVIRYDKRTKVYGADSAPAGKEITFDEESVDDALSAIKLARSIPTINPERIYILGHSLGGTLAPRIAQRSDKVPAGIILLAGAARPLEDLFISQVKFLASALPSTKDIEKEIAELQKQVDNVKRLGTDTFDITTPLPMNLSQAYWMLANQYKPLEVVRKLTLPILVLQGERDYQVTMQDFELWKSALAKHPNAIFKSYPRLNHLFQEGEGKSTPLEYSRPSSIPSYVTDDIAAFINRPKPGN” as the sequence, how does the “soluble on expression in E. coli” value read?
The value was “not soluble”.

Which “soluble on expression in E. coli” value does the source give for “MTLRTKDGLTLYTRRWDVESPRAVICLVHGLGEHSGRYEHVARFFNENGISFAAFDLRGHGRSEGKRGHAEYQQLMDDITLFLQSLDYDCPKILYGHSMGGNLALNYILRYDPDIAGGIISAPFLALPKELPKHLFFILKLLNVVAPSIQLSNGIDPNLISRDREVVEAYVSDPLVHDKISPRFILQSLEAGKWALENADRLRKPILLIHGTADQITSYRASQEFAKRAGELCKFVSYEGFYHEPHNEPEKERVLADMLKWIEEVI” here?
Its value is “not soluble”.
